Data published in article PMC6908506, “Development of Foot-and-Mouth Disease Virus-Neutralizing Monoclonal Antibodies Derived From Plasmablasts of Infected Cattle and Their Germline Gene Usage” (Frontiers in Immunology, 2019).

B1: F104 (antibody, V domains shown)
VH: QVQLRESGPSLVKPSQTLSLTCTVSGFSLSSYDVGWVRQAPGKGLECLGGIGNRGNTKYNPALKSRLSITKDNSKSQVSLSLSSVTSEDTATYYCTKSYGGNDVYDCYDSEYWGQGLLVTVSS
VL: QAVLTQPSSVSGSLGQRVSITCSGSSNNIGRYSVGWYQQVPGSGLRTIIYISSSRPSGVPDRFSGSKSGNTATLTISSLQAEDEADYFCATNDYSSDTTIFGSGTTLTVL
B2: F64 (antibody, V domains shown)
VH: QVQLRESGPSLVKPSQTLSLTCTVSGLSLNSIGVIWVRQAPGKALEWVGGINSGGSTYYKSALKSRLSITKDNSNSQVSLSLNSVTPEDTATYYCATYVGDFWGQGLLVTVSS
VL: QAVLTQPSSVSGSLGQRISITCSGSSSNIGRYNVGWYQQVPGSGLRTIIYGSSSRPSGVPDRFSGSKSGNTATLTISSLQAEDEADYFCAADDNSNSTAVFGSGTTLNVL
B3: F45 (antibody, V domains shown)
VH: QVQLRESGPSLVKPSQILSLTCTVSGFSLSSNGAVWVRQAPGKTLEWIGGISVDGSVRYNPALNSRLSITKDNSKSQVSLSMTSATPEDTATYFCVRCFSGYSPNSVCSTADYVDAWGQRLLVTVSS
VL: QAVVNQPSSVSGSLGQRVFITCSGSSSNVGNGYVIWYQLIPGSGPTTLIYGDASRPSGVPDRFSGSRSGNTATLTIISLQAEDEEDYFCASAEDSSTNAVFGSGTTLTVL
B4: F56 (antibody, V domains shown)
VH: QVQLRESGPSLVKPSQTLSLTCTFSGFSLSSNGVLWVRQAPGKALEWLGGMCRSGSTNFNPALKSRLSITKNNSKSQVSLSVSSVTPEDTATYYCTTGFDLDCDWGYEDSTWGQGLLVTVSS
VL: QAVLTQPSSVSGSLGQRVSITCSGSSSNIGNDDVGWYQQIPGSGLRTIIYGNNSRPSGVPDRFSGSKSGNTATLTISSLQAEDEADYFCASADDNTSTAVFGSGTTLTVL
B5: F36 (antibody, V domains shown)
VH: QVQLRESGPSLVKPSQTLSLTCTVSGFSLSSYAVNWVRQAPGKALECLGSIGSGGSTGYNPALKSRLSITKDNSKSQVSLSVSSVTPEDTATYYCAKTTYSGDSRTFYGCYGSGSAYETYVDTWGQGLLVTVSS
VL: QAVLTQPSSVSGSLGQRVSITCSGSSNNIGNNGVVWYQQVPGSGLRTIIYGSTGRPSGVPDRFSGSKSGNTATLTISSLQAEDEADYFCGTADDSSSIAVFGSGTTLTVL
B6: F115 (antibody)
VH: QVQLRESGPSLVKPSQTLSLTCTASGFSLSDKTLGWVRQAPGKALEWLGSMDSGGNTGYNPDLKSRLSITKDNSRSQVSLSVSSVTTEDSATYYCTTTHQISRKEQRCPDGCRVNGWWGDSGCDDDTYCRYNYWGNCIRCTYVYTYEFHVDAWGQGLLVTVSS
VL: QAVLTQPSSVSGSLGQRVSITCSGSSSNVENGYVSWYQLIPGSTPKTLIYGDTSRASGVPARFSGSRSGNTATLTISSLQAEDEADYFCASAEDTSSNAVFGSGTTLTVL
B7: F39 (antibody, V domains shown)
VH: QVQLRESGLSLVKPSQTLSLTCTVSGFSLSSYGVGWVRQAPGKALECLGGITSGGSADYNPALKSRLSITKDNSKSQVSLSLSSVTTEDTATYYCGKTSRFYGLVCNVDFYDDSEYVDAWGQGLLVTVSS
VL: QAVLTQPSSVSGSLGQRVSITCFGSSNDVGYGDYVSWFQQIPGSAPRMIIYGATRRPSGVPDRFSGSRSGNTATLTINSLQAEDEADYFCASPVGLGSGYPIFGSGTALTVL

What follows are binders tested against T1, FMDV O/Mya/98 146S antigen (Foot-and-mouth disease virus serotype …, UniProt G8JKC2, strain) (assay: immunostaining of cells or tissue). Details: one partner purified.
T1 construct: also called purified virus antigen; copies: + + +
B1: binds. B2: binds. B3: binds. B4: binds. B5: binds. B6: binds. B7: binds.
